Numbering of substitutions follows the chain as printed.
B1: PCGF1 RAWUL (150–259)/BCOR PUFD dimer (complex, human)
chain 1: LPFSSFDHSKAHYYRYDEQLNLCLERLSSGKDKNKSVLQNKYVRCSVRAEVRHLRRVLCHRLMLNPQHVQLLFDNEVLPDHMTMKQIWLSRWFGKPSPLLLQYSVKEKRR
chain 2: SDVFEFEFSETPLLPCYNIQVSVAQGPRNWLLLSDVLKKLKMSSRIFRCNFPNVEIVTIAEAEFYRQVSASLLFSCSKDLEAFNPESKELLDLVEFTNEIQTLLGSSVEWLHPSD
B2: PCGF1 RAWUL (150–259)/BCORL1 PUFD dimer (complex, human)
chain 1: B1 chain 1
chain 2: DDFMFELSDKPLLPCYNLQVSVSRGPCNWFLFSDVLKRLKLSSRIFQARFPHFEITTMPKAEFYRQVASSQLLTPAERPGGLDDRSPPGSSETVELVRYEPDLLRLLGSEVEFQSCNS
B3: PCGF1 RAWUL (150–259)/BCOR 1448–1748 dimer (complex, human)
chain 1: B1 chain 1
chain 2: PMPPEARRLIVNKNAGETLLQRAARLGYEEVVLYCLENKICDVNHRDNAGYCALHEACARGWLNIVRHLLEYGADVNCSAQDGTRPLHDAVENDHLEIVRLLLSYGADPTLATYSGRTIMKMTHSELMEKFLTDYLNDLQGRNDDDASGTWDFYGSSVCEPDDESGYDVLANPPGPEDQDDDDDAYSDVFEFEFSETPLLPCYNIQVSVAQGPRNWLLLSDVLKKLKMSSRIFRCNFPNVEIVTIAEAEFYRQVSASLLFSCSKDLEAFNPESKELLDLVEFTNEIQTLLGSSVEWLHPSD
B4: PCGF1 RAWUL (150–259)/BCOR 1593–1748 dimer (complex, human)
chain 1: B1 chain 1
chain 2: DASGTWDFYGSSVCEPDDESGYDVLANPPGPEDQDDDDDAYSDVFEFEFSETPLLPCYNIQVSVAQGPRNWLLLSDVLKKLKMSSRIFRCNFPNVEIVTIAEAEFYRQVSASLLFSCSKDLEAFNPESKELLDLVEFTNEIQTLLGSSVEWLHPSD
B5: PCGF1 RAWUL (150–259)/BCOR PUFD Leu1705Gln dimer (complex, human)
chain 1: B1 chain 1
chain 2: B1 chain 2 with L72Q

molecular target: hexahistidine (6His)-tagged KDM2B/SKP1 dimer (human, UniProt Q8NHM5 1059-1336; P63208 1-163); assay: BLI
Sequence (Q8NHM5 1059-1336, chain 1 of 2): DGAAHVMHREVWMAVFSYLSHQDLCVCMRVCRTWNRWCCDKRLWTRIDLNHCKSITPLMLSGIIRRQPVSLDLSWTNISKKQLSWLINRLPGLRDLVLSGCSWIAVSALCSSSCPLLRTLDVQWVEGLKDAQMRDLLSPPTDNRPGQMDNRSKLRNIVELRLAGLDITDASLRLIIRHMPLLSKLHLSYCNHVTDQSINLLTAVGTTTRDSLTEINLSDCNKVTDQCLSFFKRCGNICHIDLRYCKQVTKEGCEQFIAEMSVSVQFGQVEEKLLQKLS
Sequence (P63208 whole entry, chain 2 of 2): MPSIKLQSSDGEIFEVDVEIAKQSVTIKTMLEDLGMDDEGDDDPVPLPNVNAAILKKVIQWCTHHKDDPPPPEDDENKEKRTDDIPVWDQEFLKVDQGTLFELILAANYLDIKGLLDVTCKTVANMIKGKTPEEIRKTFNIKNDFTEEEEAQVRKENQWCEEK

Q: How did the Kd turn out when B1 was run?
A: 43000 nM

Q: How did the Kd turn out when B2 was run?
A: ~240 nM

Q: With B3 as the binder, how does the Kd read?
A: ~31 nM

Q: How did the Kd turn out when B4 was run?
A: 106 nM

Q: With B5 as the binder, how does the Kd read?
A: 32 nM

From article PMC8544800 (Biochemistry, 2020)
